B1: mAb158-scLc-8D3-Ig.10 (bispecific antibody, human IgG1, kappa)
heavy: not shown
chain: DIVMTQAPLSLPVSLGDQASISCRSSQSIVHSNGNTYLEWYLQKPGQSPKLLIYKVSNRFSGVPDRFSGSGSGTDFTLKISRVEAEDLGIYYCFQGSHVPPTFGGGTKLEIKRADAAPTVSIFPPSSEQLTSGGASVVCFLNNFYPKDINVKWKIDGSERQNGVLNSWTDQDSKDSTYSMSSTLTLTKDEYERHNSYTCEATHKTSTSPIVKSFNRNECGGGGSGGGGSGGGGSGGGGSGGGGSEVQLVESGGGLVQPGNSLTLSCVASGFTFSNYGMHWIRQAPKKGLEWIAMIYYDSSKMNYADTVKGRFTISRDNSKNTLYLEMNSLRSEDTAMYYCAVPTSHYVVDVWGQGVSVTVSSGGGGSGGGGSGGGGSDIQMTQSPASLSASLEEIVTITCQASQDIGNWLAWYQQKPGKSPQLLIYGATSLADGVPSRFSGSRSGTQFSLKISRVQVEDIGIYYCLQAYNTPWTFGGGTKLELKRGGGGSGGGGSDIVMTQAPLSLPVSLGDQASISCRSSQSIVHSNGNTYLEWYLQKPGQSPKLLIYKVSNRFSGVPDRFSGSGSGTDFTLKISRVEAEDLGIYYCFQGSHVPPTFGGGTKLEIKRADAAPTVSIFPPSSEQLTSGGASVVCFLNNFYPKDINVKWKIDGSERQNGVLNSWTDQDSKDSTYSMSSTLTLTKDEYERHNSYTCEATHKTSTSPIVKSFNRNEC
notes: Format [LC-L1-scBM-L2-LC]
B2: mAb158-scLc-8D3-Ig.7 (bispecific antibody, human IgG1, kappa)
heavy: not shown
chain: DIVMTQAPLSLPVSLGDQASISCRSSQSIVHSNGNTYLEWYLQKPGQSPKLLIYKVSNRFSGVPDRFSGSGSGTDFTLKISRVEAEDLGIYYCFQGSHVPPTFGGGTKLEIKRADAAPTVSIFPPSSEQLTSGGASVVCFLNNFYPKDINVKWKIDGSERQNGVLNSWTDQDSKDSTYSMSSTLTLTKDEYERHNSYTCEATHKTSTSPIVKSFNRNECGGGGSGGGGSEVQLVESGGGLVQPGNSLTLSCVASGFTFSNYGMHWIRQAPKKGLEWIAMIYYDSSKMNYADTVKGRFTISRDNSKNTLYLEMNSLRSEDTAMYYCAVPTSHYVVDVWGQGVSVTVSSGGGGSGGGGSGGGGSDIQMTQSPASLSASLEEIVTITCQASQDIGNWLAWYQQKPGKSPQLLIYGATSLADGVPSRFSGSRSGTQFSLKISRVQVEDIGIYYCLQAYNTPWTFGGGTKLELKRGGGGSGGGGSDIVMTQAPLSLPVSLGDQASISCRSSQSIVHSNGNTYLEWYLQKPGQSPKLLIYKVSNRFSGVPDRFSGSGSGTDFTLKISRVEAEDLGIYYCFQGSHVPPTFGGGTKLEIKRADAAPTVSIFPPSSEQLTSGGASVVCFLNNFYPKDINVKWKIDGSERQNGVLNSWTDQDSKDSTYSMSSTLTLTKDEYERHNSYTCEATHKTSTSPIVKSFNRNEC
notes: Format [LC-L1-scBM-L2-LC]
B3: mAb158-scLc-8D3-Ig.11 (bispecific antibody, human IgG1, kappa)
heavy: not shown
chain: DIVMTQAPLSLPVSLGDQASISCRSSQSIVHSNGNTYLEWYLQKPGQSPKLLIYKVSNRFSGVPDRFSGSGSGTDFTLKISRVEAEDLGIYYCFQGSHVPPTFGGGTKLEIKRADAAPTVSIFPPSSEQLTSGGASVVCFLNNFYPKDINVKWKIDGSERQNGVLNSWTDQDSKDSTYSMSSTLTLTKDEYERHNSYTCEATHKTSTSPIVKSFNRNECGGGGSGGGGSGGGGSGGGGSGGGGSEVQLVESGGGLVQPGNSLTLSCVASGFTFSNYGMHWIRQAPKKGLEWIAMIYYDSSKMNYADTVKGRFTISRDNSKNTLYLEMNSLRSEDTAMYYCAVPTSHYVVDVWGQGVSVTVSSGGGGSGGGGSGGGGSDIQMTQSPASLSASLEEIVTITCQASQDIGNWLAWYQQKPGKSPQLLIYGATSLADGVPSRFSGSRSGTQFSLKISRVQVEDIGIYYCLQAYNTPWTFGGGTKLELKRGGGGSGGGGSGGGGSDIVMTQAPLSLPVSLGDQASISCRSSQSIVHSNGNTYLEWYLQKPGQSPKLLIYKVSNRFSGVPDRFSGSGSGTDFTLKISRVEAEDLGIYYCFQGSHVPPTFGGGTKLEIKRADAAPTVSIFPPSSEQLTSGGASVVCFLNNFYPKDINVKWKIDGSERQNGVLNSWTDQDSKDSTYSMSSTLTLTKDEYERHNSYTCEATHKTSTSPIVKSFNRNEC
notes: Format [LC-L1-scBM-L2-LC]
B4: mAb158-scLc-8D3-Ig.12 (bispecific antibody, human IgG1, kappa)
heavy: not shown
chain: DIVMTQAPLSLPVSLGDQASISCRSSQSIVHSNGNTYLEWYLQKPGQSPKLLIYKVSNRFSGVPDRFSGSGSGTDFTLKISRVEAEDLGIYYCFQGSHVPPTFGGGTKLEIKRADAAPTVSIFPPSSEQLTSGGASVVCFLNNFYPKDINVKWKIDGSERQNGVLNSWTDQDSKDSTYSMSSTLTLTKDEYERHNSYTCEATHKTSTSPIVKSFNRNECGGGGSGGGGSGGGGSGGGGSGGGGSEVQLVESGGGLVQPGNSLTLSCVASGFTFSNYGMHWIRQAPKKGLEWIAMIYYDSSKMNYADTVKGRFTISRDNSKNTLYLEMNSLRSEDTAMYYCAVPTSHYVVDVWGQGVSVTVSSGGGGSGGGGSGGGGSDIQMTQSPASLSASLEEIVTITCQASQDIGNWLAWYQQKPGKSPQLLIYGATSLADGVPSRFSGSRSGTQFSLKISRVQVEDIGIYYCLQAYNTPWTFGGGTKLELKRGGGGSGGGGSGGGGSGGGGSDIVMTQAPLSLPVSLGDQASISCRSSQSIVHSNGNTYLEWYLQKPGQSPKLLIYKVSNRFSGVPDRFSGSGSGTDFTLKISRVEAEDLGIYYCFQGSHVPPTFGGGTKLEIKRADAAPTVSIFPPSSEQLTSGGASVVCFLNNFYPKDINVKWKIDGSERQNGVLNSWTDQDSKDSTYSMSSTLTLTKDEYERHNSYTCEATHKTSTSPIVKSFNRNEC
notes: Format [LC-L1-scBM-L2-LC]; also called mAb158-scLc-Ig.12
B5: mAb158-scLc-15G11-1-Ig.1 (bispecific antibody, human IgG1, kappa)
heavy: not shown
chain: DIVMTQAPLSLPVSLGDQASISCRSSQSIVHSNGNTYLEWYLQKPGQSPKLLIYKVSNRFSGVPDRFSGSGSGTDFTLKISRVEAEDLGIYYCFQGSHVPPTFGGGTKLEIKRTVAAPSVFIFPPSDEQLKSGTASVVCLLNNFYPREAKVQWKVDNALQSGNSQESVTEQDSKDSTYSLSSTLTLSKADYEKHKVYACEVTHQGLSSPVTKSFNRGECGGGGSGGGGSGGGGSEVQLVQSGAEVKKPGASVKVSCKASGYTFTSYWMHWVRQAPGQRLEWIGEINPTNGRTNYIEKFKSRATLTVDKSASTAYMELSSLRSEDTAVYYCARGTRAYHYWGQGTMVTVSSGGGGSGGGGSGGGGSDIQMTQSPSSLSASVGDRVTITCRASDNLYSNLAWYQQKPGKSPKLLVYDATNLADGVPSRFSGSGSGTDYTLTISSLQPEDFATYYCQHFWGTPLTFGQGTKVEIKGGGGSGGGGSGGGGSDIVMTQAPLSLPVSLGDQASISCRSSQSIVHSNGNTYLEWYLQKPGQSPKLLIYKVSNRFSGVPDRFSGSGSGTDFTLKISRVEAEDLGIYYCFQGSHVPPTFGGGTKLEIKRTVAAPSVFIFPPSDEQLKSGTASVVCLLNNFYPREAKVQWKVDNALQSGNSQESVTEQDSKDSTYSLSSTLTLSKADYEKHKVYACEVTHQGLSSPVTKSFNRGEC
notes: Format [LC-L1-scBM-L2-LC]
B6: mAb158-scLc-8D3-Ig.9 (bispecific antibody, human IgG1, kappa)
heavy: not shown
chain: DIVMTQAPLSLPVSLGDQASISCRSSQSIVHSNGNTYLEWYLQKPGQSPKLLIYKVSNRFSGVPDRFSGSGSGTDFTLKISRVEAEDLGIYYCFQGSHVPPTFGGGTKLEIKRADAAPTVSIFPPSSEQLTSGGASVVCFLNNFYPKDINVKWKIDGSERQNGVLNSWTDQDSKDSTYSMSSTLTLTKDEYERHNSYTCEATHKTSTSPIVKSFNRNECGGGGSGGGGSGGGGSGGGGSEVQLVESGGGLVQPGNSLTLSCVASGFTFSNYGMHWIRQAPKKGLEWIAMIYYDSSKMNYADTVKGRFTISRDNSKNTLYLEMNSLRSEDTAMYYCAVPTSHYVVDVWGQGVSVTVSSGGGGSGGGGSGGGGSDIQMTQSPASLSASLEEIVTITCQASQDIGNWLAWYQQKPGKSPQLLIYGATSLADGVPSRFSGSRSGTQFSLKISRVQVEDIGIYYCLQAYNTPWTFGGGTKLELKRGGGGSGGGGSGGGGSGGGGSDIVMTQAPLSLPVSLGDQASISCRSSQSIVHSNGNTYLEWYLQKPGQSPKLLIYKVSNRFSGVPDRFSGSGSGTDFTLKISRVEAEDLGIYYCFQGSHVPPTFGGGTKLEIKRADAAPTVSIFPPSSEQLTSGGASVVCFLNNFYPKDINVKWKIDGSERQNGVLNSWTDQDSKDSTYSMSSTLTLTKDEYERHNSYTCEATHKTSTSPIVKSFNRNEC
notes: Format [LC-L1-scBM-L2-LC]
B7: mAb158-scLc-8D3-Ig.8 (bispecific antibody, human IgG1, kappa)
heavy: not shown
chain: DIVMTQAPLSLPVSLGDQASISCRSSQSIVHSNGNTYLEWYLQKPGQSPKLLIYKVSNRFSGVPDRFSGSGSGTDFTLKISRVEAEDLGIYYCFQGSHVPPTFGGGTKLEIKRADAAPTVSIFPPSSEQLTSGGASVVCFLNNFYPKDINVKWKIDGSERQNGVLNSWTDQDSKDSTYSMSSTLTLTKDEYERHNSYTCEATHKTSTSPIVKSFNRNECGGGGSGGGGSGGGGSEVQLVESGGGLVQPGNSLTLSCVASGFTFSNYGMHWIRQAPKKGLEWIAMIYYDSSKMNYADTVKGRFTISRDNSKNTLYLEMNSLRSEDTAMYYCAVPTSHYVVDVWGQGVSVTVSSGGGGSGGGGSGGGGSDIQMTQSPASLSASLEEIVTITCQASQDIGNWLAWYQQKPGKSPQLLIYGATSLADGVPSRFSGSRSGTQFSLKISRVQVEDIGIYYCLQAYNTPWTFGGGTKLELKRGGGGSGGGGSGGGGSDIVMTQAPLSLPVSLGDQASISCRSSQSIVHSNGNTYLEWYLQKPGQSPKLLIYKVSNRFSGVPDRFSGSGSGTDFTLKISRVEAEDLGIYYCFQGSHVPPTFGGGTKLEIKRADAAPTVSIFPPSSEQLTSGGASVVCFLNNFYPKDINVKWKIDGSERQNGVLNSWTDQDSKDSTYSMSSTLTLTKDEYERHNSYTCEATHKTSTSPIVKSFNRNEC
notes: Format [LC-L1-scBM-L2-LC]
B8: mAb158-scLc-8D3-Ig.14 (bispecific antibody, human IgG1, kappa)
heavy: not shown
chain: DIVMTQAPLSLPVSLGDQASISCRSSQSIVHSNGNTYLEWYLQKPGQSPKLLIYKVSNRFSGVPDRFSGSGSGTDFTLKISRVEAEDLGIYYCFQGSHVPPTFGGGTKLEIKRADAAPTVSIFPPSSEQLTSGGASVVCFLNNFYPKDINVKWKIDGSERQNGVLNSWTDQDSKDSTYSMSSTLTLTKDEYERHNSYTCEATHKTSTSPIVKSFNRNECGGGGSGGGGSGGGGSGGGGSGGGGSDIQMTQSPASLSASLEEIVTITCQASQDIGNWLAWYQQKPGKSPQLLIYGATSLADGVPSRFSGSRSGTQFSLKISRVQVEDIGIYYCLQAYNTPWTFGGGTKLELKRGGGGSGGGGSGGGGSEVQLVESGGGLVQPGNSLTLSCVASGFTFSNYGMHWIRQAPKKGLEWIAMIYYDSSKMNYADTVKGRFTISRDNSKNTLYLEMNSLRSEDTAMYYCAVPTSHYVVDVWGQGVSVTVSSGGGGSGGGGSGGGGSDIVMTQAPLSLPVSLGDQASISCRSSQSIVHSNGNTYLEWYLQKPGQSPKLLIYKVSNRFSGVPDRFSGSGSGTDFTLKISRVEAEDLGIYYCFQGSHVPPTFGGGTKLEIKRADAAPTVSIFPPSSEQLTSGGASVVCFLNNFYPKDINVKWKIDGSERQNGVLNSWTDQDSKDSTYSMSSTLTLTKDEYERHNSYTCEATHKTSTSPIVKSFNRNEC
notes: Format [LC-L1-scBM-L2-LC]; also called mAb158-scLc-Ig.14

Target: T1, recombinant Aβ1-42
T1 construct: Coated at 0.5 µg/ml on ELISA plates; also called Amyloid Beta (Aβ1-42)
Assay: indirect ELISA, plates coated with recombinant Aβ1-42

T1 sequence (peptide, as listed by the source): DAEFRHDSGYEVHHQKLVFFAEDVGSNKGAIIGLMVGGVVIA

Binding result, binds:
B1
B2
B3
B4
B5
B6
B7
B8

Target: T2, recombinant murine transferrin receptor 1 (mTfR1), extracellular domain fused to a His-tag (murine, UniProt Q62351 89-763)
T2 construct: Position of the His-tag (N or C) unknown; also called recombinant mTfR1; murine TfR1; not shown: His-tag
Assay: BLI (Octet), mTfR1 captured on holo-transferrin sensors, analyte 50 nM

T2 sequence (Q62351 89-763): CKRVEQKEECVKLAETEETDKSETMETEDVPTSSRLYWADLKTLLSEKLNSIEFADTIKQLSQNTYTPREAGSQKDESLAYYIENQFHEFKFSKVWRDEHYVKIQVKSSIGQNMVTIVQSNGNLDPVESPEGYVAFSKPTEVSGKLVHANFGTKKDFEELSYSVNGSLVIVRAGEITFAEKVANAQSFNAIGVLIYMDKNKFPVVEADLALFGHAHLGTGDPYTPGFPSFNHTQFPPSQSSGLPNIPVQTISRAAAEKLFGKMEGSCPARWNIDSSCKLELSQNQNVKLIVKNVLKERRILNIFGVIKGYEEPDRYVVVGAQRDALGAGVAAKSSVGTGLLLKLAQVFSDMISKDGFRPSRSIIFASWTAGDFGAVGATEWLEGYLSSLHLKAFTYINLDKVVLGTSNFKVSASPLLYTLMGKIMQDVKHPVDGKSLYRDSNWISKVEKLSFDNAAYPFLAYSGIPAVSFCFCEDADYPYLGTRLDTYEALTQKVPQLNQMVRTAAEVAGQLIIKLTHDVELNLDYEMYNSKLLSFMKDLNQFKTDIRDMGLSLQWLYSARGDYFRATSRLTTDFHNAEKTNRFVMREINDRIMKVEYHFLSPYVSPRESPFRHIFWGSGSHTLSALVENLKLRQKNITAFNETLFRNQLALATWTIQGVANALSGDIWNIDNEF

Binding result, binds:
B1
B2
B3
B4
B6
B7
B8

Source: patent US20240141027A1 (BIOARCTIC, published 2024)
